Laboratory results published in paper doi:10.1101/2023.04.17.537135 (bioRxiv, 2023).
Numbering of substitutions follows the chain as printed.

How the values were obtained:
Test in all cases: pull-down
[1] = biological target: T1, His-tagged AHL10, non-mutated wild type (Arabidopsis thaliana, UniProt O22812 1-351)
T1 sequence (looked up): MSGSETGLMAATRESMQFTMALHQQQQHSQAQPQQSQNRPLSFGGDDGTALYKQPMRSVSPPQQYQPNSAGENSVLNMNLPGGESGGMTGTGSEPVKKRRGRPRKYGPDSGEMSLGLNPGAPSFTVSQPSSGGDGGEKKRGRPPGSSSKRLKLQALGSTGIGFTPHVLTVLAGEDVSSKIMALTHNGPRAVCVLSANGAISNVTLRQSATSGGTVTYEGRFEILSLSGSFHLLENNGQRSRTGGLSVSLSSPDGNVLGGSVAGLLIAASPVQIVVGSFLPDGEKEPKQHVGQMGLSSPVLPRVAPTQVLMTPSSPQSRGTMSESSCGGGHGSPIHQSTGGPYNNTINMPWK

[2] = biological target: T2, His-tagged AHL10 S313D (phosphomimic) (Arabidopsis thaliana, UniProt O22812 1-351, S313D)
T2 sequence (looked up): T1 sequence (looked up) with S313D

[3] = biological target: T3, His-tagged AHL10 S314D (phosphomimic) (Arabidopsis thaliana, UniProt O22812 1-351, S314D)
T3 sequence (looked up): T1 sequence (looked up) with S314D

Measured: binding result

B1: GST-tagged RRP6L1 C-terminal 337 amino acids (domain or fragment, Arabidopsis thaliana, UniProt Q0WVE8 301-637, looked up)
chain: YKRSYDVCMQLYEKELWTRDSYLHVYGVQTGNLNAVQLSIVAGLCEWRDRIARADDESTGYVLPNKTLFDIAKEMPIVVAQLRRLLKSKLPYLERNFDAVISVIRRSMQNAAAFEPVVQSLKDRRPETVVEMNIEPKIEKTDTGASASSLSLEKVCVDDSKKQSSGFGVLPLKRKLESDKTVVEKNIEPKIEKTGTEASASSLSSKKVCVDDSKKQSSGFGVLLSKRKFESDNKVKEEVKVSKSKPDKVIIVVDDDDDDDDDESYEQSTKAADALDRVSETPSKGSPSLTQKPKTCNTEVIVLDDDDDSESREDEDMRRRSEKHRRFMNMKRGFLNI
binds: all assays above

B2: GST-tagged RRP6L1 N-terminal 300 amino acids (domain or fragment, Arabidopsis thaliana, UniProt Q0WVE8 1-300, looked up)
chain: MRFDDPMDEFKRNRKMEEDSKKVIDVKVAESDKGFAKFGKAEVPFHIPTLTKPQEEYKILVDNANNPFEHVLLEKSEDGLRFIHPLEELSVMDFVDRNLSEMRPVKPLPLEETPFKLVEEVKDLEDLAAALQSVEEFAVDLEHNQYRTFQGLTCLMQISTRTEDYIVDIFKLWDHIGPYLRELFKDPKKKKVIHGADRDIIWLQRDFGIYVCNLFDTGQASRVLKLERNSLEFLLKHYCGVAANKEYQKADWRIRPLPDVMKRYAREDTHYLLYIYDVMRMELHTMAKEDEQSDSPLVEV
binds: all assays above
